Source: patent US20230279138A1 (CHIA TAI TIANQING PHARMACEUTICAL GROUP, published 2023)

Legend:
[1] = biological target: T1, CD20 on Raji cells (CD20+/CD3- cells) (human, UniProt P11836 1-297); assay: flow cytometry on Raji cells (CD20+/CD3-)
T1 construct: whole, on cells; Raji, Ramos and NAMALWA in the killing assays; also called Ramos; NAMALWA
T1 sequence (looked up): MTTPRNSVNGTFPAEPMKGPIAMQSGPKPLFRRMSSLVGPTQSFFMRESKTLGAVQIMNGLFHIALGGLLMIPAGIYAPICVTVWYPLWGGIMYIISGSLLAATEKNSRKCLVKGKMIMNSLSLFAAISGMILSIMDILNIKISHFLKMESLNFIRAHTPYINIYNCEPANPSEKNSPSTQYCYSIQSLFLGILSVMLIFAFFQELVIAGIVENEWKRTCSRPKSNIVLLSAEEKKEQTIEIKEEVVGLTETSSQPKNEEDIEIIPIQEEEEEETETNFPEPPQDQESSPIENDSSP
Method: (§1) After incubation, the cells were washed twice with cold 1% BSA/1×PBS. […] After being washed twice, the geometric mean fluorescence (MFI) of the stained cells was measured using a FACS Canto II […] (BD Biosciences). Wells containing no antibody or containing only fluorescent secondary antibody were used to establish background fluorescence. The EC50 values for cell binding were determined using GraphPad Prism 5 software (GraphPad Software, La Jolla, Calif.); each value was calculated by four-parameter non-linear regression analysis.

[2] = biological target: T1, CD20 on Raji cells (CD20+/CD3- cells); assay: cell-based or functional assay
[3] = biological target: T1, CD20 on Raji cells (CD20+/CD3- cells); assay: cell-based or functional assay; remark: listed apart in the source
[4] = biological target: T1, CD20 on Raji cells (CD20+/CD3- cells); assay: cell-based or functional assay; remark: listed apart in the source
[5] = biological target: T1, CD20 on Raji cells (CD20+/CD3- cells); assay: cell-based or functional assay; remark: listed apart in the source
[6] = biological target: T1, CD20 on Raji cells (CD20+/CD3- cells); assay: FACS on Raji cells after 0, 1, 4 or 7 days at 37 C in human serum
Method: as §1
(§2) The antibody was mixed with freshly collected human serum and the proportion of serum in the mixture sample was ensured to be >95%. The mixture sample was aliquoted and incubated at 37° C. for 0-14 days. […] The bindings of each sample to Raji or Jurkat cells was analyzed by FACS.

[7] = biological target: T2, CD3 on Jurkat cells (CD3+/CD20- cells) (human, UniProt P07766 23-207; P04234 22-171; P09693 23-182); assay: cell-based or functional assay
T2 sequence (P07766 23-207, chain 1 of 3): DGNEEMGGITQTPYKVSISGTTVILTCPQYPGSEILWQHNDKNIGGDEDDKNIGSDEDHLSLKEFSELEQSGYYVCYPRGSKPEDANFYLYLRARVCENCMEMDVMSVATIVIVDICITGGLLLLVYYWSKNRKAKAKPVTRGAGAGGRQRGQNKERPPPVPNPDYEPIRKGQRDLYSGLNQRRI
T2 sequence (P04234 22-171, chain 2 of 3): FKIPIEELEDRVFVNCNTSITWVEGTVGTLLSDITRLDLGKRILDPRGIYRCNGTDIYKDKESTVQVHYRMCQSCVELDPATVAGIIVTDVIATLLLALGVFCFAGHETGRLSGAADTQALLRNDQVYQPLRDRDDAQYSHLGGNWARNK
T2 sequence (P09693 23-182, chain 3 of 3): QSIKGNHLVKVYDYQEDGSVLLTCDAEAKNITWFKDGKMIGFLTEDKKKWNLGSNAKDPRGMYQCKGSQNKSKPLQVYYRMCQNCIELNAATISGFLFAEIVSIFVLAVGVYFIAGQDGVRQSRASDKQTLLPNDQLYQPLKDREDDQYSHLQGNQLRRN

[8] = biological target: T1, CD20 on Raji cells (CD20+/CD3- cells); assay: FACS on Raji cells after 14 days at 37 C in human serum
Method: as §1, §2

[9] = biological target: T2, CD3 on Jurkat cells (CD3+/CD20- cells); assay: flow cytometry on Jurkat 2B8 cells (CD3+/CD20-)
Method: as §1

B1: W3278-U2T3.F18R-1.uIgG4.SP (bispecific antibody)
heavy 1: QVQLQQPGAELVKPGASVKMSCKASGYTFTSYNMHWVKQTPGRGLEWIGAIYPGNGDTSYNQKFKGKATLTADKSSSTAYMQLSSLTSEDSAVYYCARSTYYGGDWYFNVWGAGTTVTVSAASTKGPSVFPLAPCSRSTSESTAALGCLVKDYFPEPVTVSWNSGALTSGVHTFPAVLQSSGLYSLSSVVTVPSSSLGTKTYTCNVDHKPSNTKVDKRVGGGGSGGGGSQVQLVQSGAEVKKPGSSVKVSCKASGFAFTDYYIHWVRQAPGQGLEWMGWISPGNVNTKYNENFKGRVTITADKSTSTAYMELSSLRSEDTAVYYCARDGYSLYYFDYWGQGTLVTVLEDLKNVFPPEVAVFEPSEAEISHTQKATLVCLATGFYPDHVELSWWVNGKEVHSGVCTDPQPLKEQPALQDSRYALSSRLRVSATFWQNPRNHFRCQVQFYGLSENDEWTQDRAKPVTQIVSAEAWGRYGPPCPPCPAPEFLGGPSVFLFPPKPKDTLMISRTPEVTCVVVDVSQEDPEVQFNWYVDGVEVHNAKTKPREEQFNSTYRVVSVLTVLHQDWLNGKEYKCKVSNKGLPSSIEKTISKAKGQPREPQVYTLPPCQEEMTKNQVSLWCLVKGFYPSDIAVEWESNGQPENNYKTTPPVLDSDGSFFLYSRLTVDKSRWQEGNVFSCSVMHEALHNHYTQKSLSLSLG
heavy 2: QVQLQQPGAELVKPGASVKMSCKASGYTFTSYNMHWVKQTPGRGLEWIGAIYPGNGDTSYNQKFKGKATLTADKSSSTAYMQLSSLTSEDSAVYYCARSTYYGGDWYFNVWGAGTTVTVSAASTKGPSVFPLAPCSRSTSESTAALGCLVKDYFPEPVTVSWNSGALTSGVHTFPAVLQSSGLYSLSSVVTVPSSSLGTKTYTCNVDHKPSNTKVDKRVESKYGPPCPPCPAPEFLGGPSVFLFPPKPKDTLMISRTPEVTCVVVDVSQEDPEVQFNWYVDGVEVHNAKTKPREEQFNSTYRVVSVLTVLHQDWLNGKEYKCKVSNKGLPSSIEKTISKAKGQPREPQVCTLPPSQEEMTKNQVSLSCAVKGFYPSDIAVEWESNGQPENNYKTTPPVLDSDGSFFLVSRLTVDKSRWQEGNVFSCSVMHEALHNHYTQKSLSLSLG
light 1: QIVLSQSPAILSASPGEKVTMTCRASSSVSYIHWFQQKPGSSPKPWIYATSNLASGVPVRFSGSGSGTSYSLTISRVEAEDAATYYCQQWTSNPPTFGGGTKLEIKRTVAAPSVFIFPPSDEQLKSGTASVVCLLNNFYPREAKVQWKVDNALQSGNSQESVTEQDSKDSTYSLSSTLTLSKADYEKHKVYACEVTHQGLSSPVTKSFNRGEC
light 2: DIVMTQSPDSLAVSLGERATINCKSSQSLLNSRTRKNYLAWYQQKPGQPPKLLIYWASTRQSGVPDRFSGSGSGTDFTLTISSLQAEDVAVYYCTQSHTLRTFGGGTKVEIKPDIQNPDPAVYQLRDSKSSDKSVCLFTDFDSQTQVSQSKDSDVYITDKCVLDMRSMDFKSNSAVAWSQKSDFACANAFQNSIIPEDTFFPSPESS
notes: Human IgG4 S228P, knobs-into-holes; also called WBP3278 lead Ab; W3278 lead Ab
EC50 [1]: 2.5 nM
TOP MFI [1]: 66700 MFI
EC50 of IL-2 release, CD4+ T cells with Raji cells [2]: 0.0114 nM
EC50 of TNF-α release, CD4+ T cells with Raji cells [2]: 0.0135 nM
EC50 ratio IL-2 release/Raji cell killing [2]: 22
EC50 ratio TNFα release/Raji cell killing [2]: 26
EC50 of CD69 expression, CD4+ T cells with Raji cells [3]: 0.0002 nM
EC50 of CD69 expression, CD8+ T cells with Raji cells [3]: 0.0004 nM
EC50 of CD25 expression, CD4+ T cells with Raji cells [4]: 0.0006 nM
EC50 of CD25 expression, CD8+ T cells with Raji cells [4]: 0.0008 nM
cytotoxicity EC50, CD8+ T cells against NAMALWA cells (FACS) [5]: 0.0468 nM
cytotoxicity EC50, CD8+ T cells against Raji cells (FACS) [5]: 0.00052 nM
cytotoxicity EC50, CD8+ T cells against Ramos cells (FACS) [5]: 0.00125 nM
EC50 (read off the curve) [6]: ~6 nM
Biological activity (%) (EC50 of reference/EC50 of test sample; Jurkat luciferase reporter with Raji cells), lyophilized formulation, T0 [7]: 114%
EC50 (read off the curve) [8]: ~6 nM
EC50 [9]: 41.7 nM
TOP MFI [9]: 4080 MFI
